In this assay the target is T1, 6His-She1 C-terminal fragment (residues 194-338) (S. cerevisiae, UniProt P38200 194-338).
T1 sequence (looked up): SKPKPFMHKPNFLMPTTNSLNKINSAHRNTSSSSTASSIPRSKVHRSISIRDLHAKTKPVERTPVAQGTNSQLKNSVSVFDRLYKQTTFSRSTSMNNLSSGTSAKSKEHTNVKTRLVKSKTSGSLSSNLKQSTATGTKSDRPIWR
Nature of the assay: pull-down.

B1: peptide encompassing the C-terminus of Tub1 (amino acids 415-447), wild type (peptide)
peptide: not shown
With B1, the binding result was “binds”.

The values are drawn from paper PMC8684761 (Molecular Biology of the Cell, 2021).
